Experimental data: article PMC7889167 (mAbs, 2021)

Target: biotinylated hIL-21 R (human, UniProt Q9HBE5, biotin (site not stated))
Test: AlphaScreen or HTRF

Chain of biotinylated hIL-21 R (Q9HBE5 20-232): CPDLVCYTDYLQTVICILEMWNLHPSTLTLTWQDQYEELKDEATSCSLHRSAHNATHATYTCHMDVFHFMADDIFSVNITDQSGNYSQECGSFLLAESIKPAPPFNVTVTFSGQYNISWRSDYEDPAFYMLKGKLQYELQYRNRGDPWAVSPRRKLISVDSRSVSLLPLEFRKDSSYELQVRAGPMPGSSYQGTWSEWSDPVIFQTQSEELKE

binding result: binds
B1: europium cryptate-labeled MJ4-2 (antibody, V domains shown)
VH: EVQLVESGGGLVQPGRSLRLSCAASGVTFSDYHMAWVRQAPKKGLEWVATIIYDAARTYYRDSVKGRFTISRDNAKNSLYLQMNSLRAEDTAVYYCATWQTTGTPGWFAYWGQGTLVTVSS
VL: DIQMTQSPSSLSASVGDRVTITCGASQSVSISRFNLMHWYQQKPGHQPKLLIYRASNLASGVPSRFSGSGSGTDFTLTINPLQAEDFATYYCQQSRESPPTFGGGTKVEIK
